Experimental findings from ChEMBL document CHEMBL2074128, “Cytotoxicity of antiviral nucleotides adefovir and cidofovir is induced by the expression of human renal organic anion transporter 1” (J Am Soc Nephrol, 2000) are described below.

Substrate in data set [1]: Nc1ncnc2c1ncn2CCOCP(=O)(O)O
Nature of the data set: TP_TRANSPORTER: uptake in OAT1-expressing CHO cells. The data set is classed as functional, cell-based.

Substrate in data set [2]: Nc1ccn(C[C@@H](CO)OCP(=O)(O)O)c(=O)n1
Nature of the data set: cells, lysate or membranes named.

B1: Solute carrier family 22 member 6 (Homo sapiens) (protein)
chain: MAFNDLLQQVGGVGRFQQIQVTLVVLPLLLMASHNTLQNFTAAIPTHHCRPPADANLSKNGGLEVWLPRDRQGQPESCLRFTSPQWGLPFLNGTEANGTGATEPCTDGWIYDNSTFPSTIVTEWDLVCSHRALRQLAQSLYMVGVLLGAMVFGYLADRLGRRKVLILNYLQTAVSGTCAAFAPNFPIYCAFRLLSGMALAGISLNCMTLNVEWMPIHTRACVGTLIGYVYSLGQFLLAGVAYAVPHWRHLQLLVSAPFFAFFIYSWFFIESARWHSSSGRLDLTLRALQRVARINGKREEGAKLSMEVLRASLQKELTMGKGQASAMELLRCPTLRHLFLCLSMLWFATSFAYYGLVMDLQGFGVSIYLIQVIFGAVDLPAKLVGFLVINSLGRRPAQMAALLLAGICILLNGVIPQDQSIVRTSLAVLGKGCLAASFNCIFLYTGELYPTMIRQTGMGMGSTMARVGSIVSPLVSMTAELYPSMPLFIYGAVPVAASAVTVLLPETLGQPLPDTVQDLESRWAPTQKEAGIYPRKGKQTRQQQEHQKYMVPLQASAQEKNGL
With B1, the Km – broadly, the concentration of substrate that gives half-maximal velocity – in data set [1] is 23.8 µM; in data set [2], 58 µM.
